Data published in PMC10331576 (2023).

Target: COVID-2019-Spike-328-585 (RBD) (SARS-CoV-2, UniProt P0DTC2 328-585)
Assay: BLI

B1: DC-SIGN.Fc (Fc fusion)
chain: QVSKVPSSISQEQSRQDAIYQNLTQLKAAVGELSEKSKLQEIYQELTQLKAAVGELPEKSKLQEIYQELTRLKAAVGELPEKSKLQEIYQELTWLKAAVGELPEKSKMQEIYQELTRLKAAVGELPEKSKQQEIYQELTRLKAAVGELPEKSKQQEIYQELTRLKAAVGELPEKSKQQEIYQELTQLKAAVERLCHPCPWEWTFFQGNCYFMSNSQRNWHDSITACKEVGAQLVVIKSAEEQNFLQLQSSRSNRFTWMGLSDLNQEGTWQWVDGSPLLPSFKQYWNRGEPNNVGEEDCAEFSGNGWNDDKCNLAKFWICKKSAASCSRDEEQFLSPAPATPNPPPA
In the case of B1, the koff is reported as 0.000614 s⁻¹.
